Measurements: US20210388087A1

How the values were obtained:
[1] = target: Human CD137 ECD (human); assay: Biacore SPR, vs parent H183/L072
[2] = target: Human CD3eg linker (human); assay: SPR; fold vs parent H183/L072
Human CD3eg linker (human), sequence (chain, as listed by the source limits assumed): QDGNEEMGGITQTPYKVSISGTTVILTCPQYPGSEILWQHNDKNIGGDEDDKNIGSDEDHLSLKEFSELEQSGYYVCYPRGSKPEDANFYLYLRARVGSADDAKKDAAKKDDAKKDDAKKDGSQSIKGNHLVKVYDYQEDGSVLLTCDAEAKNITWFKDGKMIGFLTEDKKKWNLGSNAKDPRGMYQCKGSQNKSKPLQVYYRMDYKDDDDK

Human CD137 ECD (human), sequence (chain, as listed by the source limits assumed): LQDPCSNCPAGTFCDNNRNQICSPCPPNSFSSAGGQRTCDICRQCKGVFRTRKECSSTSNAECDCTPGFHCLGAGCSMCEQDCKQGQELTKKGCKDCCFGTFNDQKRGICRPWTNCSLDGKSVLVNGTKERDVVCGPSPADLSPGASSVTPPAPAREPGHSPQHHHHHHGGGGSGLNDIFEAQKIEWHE

| fold change of affinity [1] [fold] | fold change of affinity [2] [fold] | Binder |
| --- | --- | --- |
| 0 | – | H183/L072 VL Q24E (antibody, name in Kabat numbering, V domains shown) VH: QVQLVESGGGLVQPGRSLRLSCAASGFTFSNAWMHWVRQAPGKGLEWVAQIKDKGNAYAAYYAPSVKGRFTISRDDSKNSIYLQMNSLKTEDTAVYYCHYVHYASASTVLPAFGVDAWGQGTTVTVSS VL: DIVMTQSPLSLPVTPGEPASISCEASQELVHMNRNTYLHWYQQKPGQAPRLLIYKVSNRFPGVPDRFSGSGSGTDFTLKISRVEAEDVGVYYCAQGTSVPFTFGQGTKLEIK |
| 0 | 0 | H183/L072 VL A25F (antibody, name in Kabat numbering, V domains shown) VH: QVQLVESGGGLVQPGRSLRLSCAASGFTFSNAWMHWVRQAPGKGLEWVAQIKDKGNAYAAYYAPSVKGRFTISRDDSKNSIYLQMNSLKTEDTAVYYCHYVHYASASTVLPAFGVDAWGQGTTVTVSS VL: DIVMTQSPLSLPVTPGEPASISCQFSQELVHMNRNTYLHWYQQKPGQAPRLLIYKVSNRFPGVPDRFSGSGSGTDFTLKISRVEAEDVGVYYCAQGTSVPFTFGQGTKLEIK |
| 0 | – | H183/L072 VL H34E (antibody, name in Kabat numbering, V domains shown) VH: QVQLVESGGGLVQPGRSLRLSCAASGFTFSNAWMHWVRQAPGKGLEWVAQIKDKGNAYAAYYAPSVKGRFTISRDDSKNSIYLQMNSLKTEDTAVYYCHYVHYASASTVLPAFGVDAWGQGTTVTVSS VL: DIVMTQSPLSLPVTPGEPASISCQASQELVHMNRNTYLEWYQQKPGQAPRLLIYKVSNRFPGVPDRFSGSGSGTDFTLKISRVEAEDVGVYYCAQGTSVPFTFGQGTKLEIK |
| 0 | – | H183/L072 VL Y32E (antibody, name in Kabat numbering, V domains shown) VH: QVQLVESGGGLVQPGRSLRLSCAASGFTFSNAWMHWVRQAPGKGLEWVAQIKDKGNAYAAYYAPSVKGRFTISRDDSKNSIYLQMNSLKTEDTAVYYCHYVHYASASTVLPAFGVDAWGQGTTVTVSS VL: DIVMTQSPLSLPVTPGEPASISCQASQELVHMNRNTELHWYQQKPGQAPRLLIYKVSNRFPGVPDRFSGSGSGTDFTLKISRVEAEDVGVYYCAQGTSVPFTFGQGTKLEIK |
| 0 | – | H183/L072 VL F55A (antibody, name in Kabat numbering, V domains shown) VH: QVQLVESGGGLVQPGRSLRLSCAASGFTFSNAWMHWVRQAPGKGLEWVAQIKDKGNAYAAYYAPSVKGRFTISRDDSKNSIYLQMNSLKTEDTAVYYCHYVHYASASTVLPAFGVDAWGQGTTVTVSS VL: DIVMTQSPLSLPVTPGEPASISCQASQELVHMNRNTYLHWYQQKPGQAPRLLIYKVSNRAPGVPDRFSGSGSGTDFTLKISRVEAEDVGVYYCAQGTSVPFTFGQGTKLEIK |
| 0 | 0 | H183/L072 VL L27bR (antibody, name in Kabat numbering, V domains shown) VH: QVQLVESGGGLVQPGRSLRLSCAASGFTFSNAWMHWVRQAPGKGLEWVAQIKDKGNAYAAYYAPSVKGRFTISRDDSKNSIYLQMNSLKTEDTAVYYCHYVHYASASTVLPAFGVDAWGQGTTVTVSS VL: DIVMTQSPLSLPVTPGEPASISCQASQERVHMNRNTYLHWYQQKPGQAPRLLIYKVSNRFPGVPDRFSGSGSGTDFTLKISRVEAEDVGVYYCAQGTSVPFTFGQGTKLEIK |
| 0 | – | H183/L072 VL L33K (antibody, name in Kabat numbering, V domains shown) VH: QVQLVESGGGLVQPGRSLRLSCAASGFTFSNAWMHWVRQAPGKGLEWVAQIKDKGNAYAAYYAPSVKGRFTISRDDSKNSIYLQMNSLKTEDTAVYYCHYVHYASASTVLPAFGVDAWGQGTTVTVSS VL: DIVMTQSPLSLPVTPGEPASISCQASQELVHMNRNTYKHWYQQKPGQAPRLLIYKVSNRFPGVPDRFSGSGSGTDFTLKISRVEAEDVGVYYCAQGTSVPFTFGQGTKLEIK |
| 0 | 0 | H183/L072 VL L33R (antibody, name in Kabat numbering, V domains shown) VH: QVQLVESGGGLVQPGRSLRLSCAASGFTFSNAWMHWVRQAPGKGLEWVAQIKDKGNAYAAYYAPSVKGRFTISRDDSKNSIYLQMNSLKTEDTAVYYCHYVHYASASTVLPAFGVDAWGQGTTVTVSS VL: DIVMTQSPLSLPVTPGEPASISCQASQELVHMNRNTYRHWYQQKPGQAPRLLIYKVSNRFPGVPDRFSGSGSGTDFTLKISRVEAEDVGVYYCAQGTSVPFTFGQGTKLEIK |
| 0 | – | H183/L072 VL Y32K (antibody, name in Kabat numbering, V domains shown) VH: QVQLVESGGGLVQPGRSLRLSCAASGFTFSNAWMHWVRQAPGKGLEWVAQIKDKGNAYAAYYAPSVKGRFTISRDDSKNSIYLQMNSLKTEDTAVYYCHYVHYASASTVLPAFGVDAWGQGTTVTVSS VL: DIVMTQSPLSLPVTPGEPASISCQASQELVHMNRNTKLHWYQQKPGQAPRLLIYKVSNRFPGVPDRFSGSGSGTDFTLKISRVEAEDVGVYYCAQGTSVPFTFGQGTKLEIK |
| 0.06 | – | H183/L072 VL R54N (antibody, name in Kabat numbering, V domains shown) VH: QVQLVESGGGLVQPGRSLRLSCAASGFTFSNAWMHWVRQAPGKGLEWVAQIKDKGNAYAAYYAPSVKGRFTISRDDSKNSIYLQMNSLKTEDTAVYYCHYVHYASASTVLPAFGVDAWGQGTTVTVSS VL: DIVMTQSPLSLPVTPGEPASISCQASQELVHMNRNTYLHWYQQKPGQAPRLLIYKVSNNFPGVPDRFSGSGSGTDFTLKISRVEAEDVGVYYCAQGTSVPFTFGQGTKLEIK |
| 0 | – | H183/L072 VL A25E (antibody, name in Kabat numbering, V domains shown) VH: QVQLVESGGGLVQPGRSLRLSCAASGFTFSNAWMHWVRQAPGKGLEWVAQIKDKGNAYAAYYAPSVKGRFTISRDDSKNSIYLQMNSLKTEDTAVYYCHYVHYASASTVLPAFGVDAWGQGTTVTVSS VL: DIVMTQSPLSLPVTPGEPASISCQESQELVHMNRNTYLHWYQQKPGQAPRLLIYKVSNRFPGVPDRFSGSGSGTDFTLKISRVEAEDVGVYYCAQGTSVPFTFGQGTKLEIK |
| 0 | 0 | H183/L072 VL H34R (antibody, name in Kabat numbering, V domains shown) VH: QVQLVESGGGLVQPGRSLRLSCAASGFTFSNAWMHWVRQAPGKGLEWVAQIKDKGNAYAAYYAPSVKGRFTISRDDSKNSIYLQMNSLKTEDTAVYYCHYVHYASASTVLPAFGVDAWGQGTTVTVSS VL: DIVMTQSPLSLPVTPGEPASISCQASQELVHMNRNTYLRWYQQKPGQAPRLLIYKVSNRFPGVPDRFSGSGSGTDFTLKISRVEAEDVGVYYCAQGTSVPFTFGQGTKLEIK |
| 0 | 0 | H183/L072 VL H34F (antibody, name in Kabat numbering, V domains shown) VH: QVQLVESGGGLVQPGRSLRLSCAASGFTFSNAWMHWVRQAPGKGLEWVAQIKDKGNAYAAYYAPSVKGRFTISRDDSKNSIYLQMNSLKTEDTAVYYCHYVHYASASTVLPAFGVDAWGQGTTVTVSS VL: DIVMTQSPLSLPVTPGEPASISCQASQELVHMNRNTYLFWYQQKPGQAPRLLIYKVSNRFPGVPDRFSGSGSGTDFTLKISRVEAEDVGVYYCAQGTSVPFTFGQGTKLEIK |
| 0 | – | H183/L072 VL A25H (antibody, name in Kabat numbering, V domains shown) VH: QVQLVESGGGLVQPGRSLRLSCAASGFTFSNAWMHWVRQAPGKGLEWVAQIKDKGNAYAAYYAPSVKGRFTISRDDSKNSIYLQMNSLKTEDTAVYYCHYVHYASASTVLPAFGVDAWGQGTTVTVSS VL: DIVMTQSPLSLPVTPGEPASISCQHSQELVHMNRNTYLHWYQQKPGQAPRLLIYKVSNRFPGVPDRFSGSGSGTDFTLKISRVEAEDVGVYYCAQGTSVPFTFGQGTKLEIK |
| 0 | – | H183/L072 VL A25K (antibody, name in Kabat numbering, V domains shown) VH: QVQLVESGGGLVQPGRSLRLSCAASGFTFSNAWMHWVRQAPGKGLEWVAQIKDKGNAYAAYYAPSVKGRFTISRDDSKNSIYLQMNSLKTEDTAVYYCHYVHYASASTVLPAFGVDAWGQGTTVTVSS VL: DIVMTQSPLSLPVTPGEPASISCQKSQELVHMNRNTYLHWYQQKPGQAPRLLIYKVSNRFPGVPDRFSGSGSGTDFTLKISRVEAEDVGVYYCAQGTSVPFTFGQGTKLEIK |
| 0 | – | H183/L072 VL H34A (antibody, name in Kabat numbering, V domains shown) VH: QVQLVESGGGLVQPGRSLRLSCAASGFTFSNAWMHWVRQAPGKGLEWVAQIKDKGNAYAAYYAPSVKGRFTISRDDSKNSIYLQMNSLKTEDTAVYYCHYVHYASASTVLPAFGVDAWGQGTTVTVSS VL: DIVMTQSPLSLPVTPGEPASISCQASQELVHMNRNTYLAWYQQKPGQAPRLLIYKVSNRFPGVPDRFSGSGSGTDFTLKISRVEAEDVGVYYCAQGTSVPFTFGQGTKLEIK |
| 0 | – | H183/L072 VL T31H (antibody, name in Kabat numbering, V domains shown) VH: QVQLVESGGGLVQPGRSLRLSCAASGFTFSNAWMHWVRQAPGKGLEWVAQIKDKGNAYAAYYAPSVKGRFTISRDDSKNSIYLQMNSLKTEDTAVYYCHYVHYASASTVLPAFGVDAWGQGTTVTVSS VL: DIVMTQSPLSLPVTPGEPASISCQASQELVHMNRNHYLHWYQQKPGQAPRLLIYKVSNRFPGVPDRFSGSGSGTDFTLKISRVEAEDVGVYYCAQGTSVPFTFGQGTKLEIK |
| 0 | – | H183/L072 VL A25R (antibody, name in Kabat numbering, V domains shown) VH: QVQLVESGGGLVQPGRSLRLSCAASGFTFSNAWMHWVRQAPGKGLEWVAQIKDKGNAYAAYYAPSVKGRFTISRDDSKNSIYLQMNSLKTEDTAVYYCHYVHYASASTVLPAFGVDAWGQGTTVTVSS VL: DIVMTQSPLSLPVTPGEPASISCQRSQELVHMNRNTYLHWYQQKPGQAPRLLIYKVSNRFPGVPDRFSGSGSGTDFTLKISRVEAEDVGVYYCAQGTSVPFTFGQGTKLEIK |
| 0 | 0 | H183/L072 VL Y32R (antibody, name in Kabat numbering, V domains shown) VH: QVQLVESGGGLVQPGRSLRLSCAASGFTFSNAWMHWVRQAPGKGLEWVAQIKDKGNAYAAYYAPSVKGRFTISRDDSKNSIYLQMNSLKTEDTAVYYCHYVHYASASTVLPAFGVDAWGQGTTVTVSS VL: DIVMTQSPLSLPVTPGEPASISCQASQELVHMNRNTRLHWYQQKPGQAPRLLIYKVSNRFPGVPDRFSGSGSGTDFTLKISRVEAEDVGVYYCAQGTSVPFTFGQGTKLEIK |
| 0 | – | H183/L072 VL H34K (antibody, name in Kabat numbering, V domains shown) VH: QVQLVESGGGLVQPGRSLRLSCAASGFTFSNAWMHWVRQAPGKGLEWVAQIKDKGNAYAAYYAPSVKGRFTISRDDSKNSIYLQMNSLKTEDTAVYYCHYVHYASASTVLPAFGVDAWGQGTTVTVSS VL: DIVMTQSPLSLPVTPGEPASISCQASQELVHMNRNTYLKWYQQKPGQAPRLLIYKVSNRFPGVPDRFSGSGSGTDFTLKISRVEAEDVGVYYCAQGTSVPFTFGQGTKLEIK |
